Experimental data from US20190233498A1 (H LUNDBECK A S, published 2019).

T1: human PACAP38 (human, not fully specified; C-terminal lysine is amidated; N-terminal or C-terminal biotin in the HTRF and PC-12 cell binding assays)
T1 peptide: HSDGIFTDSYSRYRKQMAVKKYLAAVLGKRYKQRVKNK

T2: human PACAP27 (human, C-terminal leucine is amidated; 125I-labelled in Example 10)
T2 peptide: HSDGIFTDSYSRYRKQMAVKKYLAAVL

T3: human VIP (human)
T3 construct: also called Vasoactive Intestinal Peptide
T3 peptide: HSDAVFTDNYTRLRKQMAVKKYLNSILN


Columns and labels:
human PACAP38 [1] = target: T1, human PACAP38; experiment: cell-based or functional assay
human PACAP38 [2] = target: T1, human PACAP38; experiment: cell-based or functional assay
human PACAP38 [3] = target: T1, human PACAP38; experiment: inhibition of 30 nM biotin-PACAP38 binding to PC-12 cells, TRF
Method: To identify antibodies that block PACAP38 binding to PAC1-R-expressing cells, adherent PC-12 cells (ATCC, Manassas, Va.) expressing PAC1-R were used in a Europium-based PAC1-R expressing cells binding assay.
Antibody solutions were incubated with N-terminal biotinylated PACAP38 at 10× the final concentration (100 nM or 30 nM) for 1 hr, then added to PC-12 cells that were plated 24 hrs. prior in black clear bottom 96 well plates (COSTAR™, Corning Incorporated, Corning, N.Y.) and further incubated for 1 hr at room temperature. After three washes, the cells were incubated with 20 μl Europium-labeled streptavidin (PerkinElmer, Waltham, Mass.) for 1 hr at room temperature. Cells were washed three times, then 20 μl DELFIA® Enhancement solution (PerkinElmer, Waltham, Mass.) was added to each well and incubated for 15 minutes with gentle shaking. Plates were read (Time Resolved Fluorescence (“TRF”)) on SPECTRAMAX® (Molecular Devices, Sunnyvale, Calif.) plate reader.
FIGS. 14A-14BB are representative of the inhibition curves obtained by this method (results are shown for Ab1, Ab2, Ab3, Ab4, Ab5, Ab6, Ab7, Ab8, Ab9, Ab10, Ab11, Ab12, Ab13, Ab14, Ab15, Ab16, Ab17, Ab18, Ab19, Ab1.H, Ab10.H, Ab22, Ab23, Ab3.H, Ab4.H, Ab5.H, Ab9.H, and Ab12.H, respectively) wherein the PAC1-R expressing cells were PC-12 cells.

human PACAP27 [4] = target: T2, human PACAP27; experiment: cell-based or functional assay
human PACAP38 [5] = target: T1, human PACAP38; experiment: cell-based or functional assay
human PACAP27 [6] = target: T2, human PACAP27; experiment: SPR, Ab immobilised
human VIP = target: T3, human VIP; experiment: SPR, Ab immobilised
human PACAP38 [7] = target: T1, human PACAP38; experiment: SPR, Ab immobilised
Procedure, shortened: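 SPR with antibody amine-coupled to the chip and human PACAP38 flowed as analyte at 1.23–100 nM in PBST containing 0.25 M arginine, 0.2 mg/ml BSA and 0.005% azide, pH 7. Association lasted 2–4 min and dissociation 3–120 min. Kinetics were fitted to a 1:1 Langmuir model.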

human PACAP27 [8] = target: T2, human PACAP27; experiment: inhibition of 0.1 nM 125I-PACAP27 binding to human PAC1-R membranes
Method: To identify antibodies that block PACAP27 binding to PAC1-R, antibodies at an initial concentration of 30 nM were diluted in incubation buffer (50 mM Hepes pH 7.4, 1 mM CaCl₂, 5 mM MgCl₂, 0.2% BSA) and serial 1:3 dilutions were performed. Antibody dilutions (30 nM, 10 nM, 3 nM, 1 nM, 0.3 nM, 0.1 nM, 0.03 nM, 0.01 nM, 0.003 nM and 0.001 nM) were then mixed and pre-incubated at 25° C. for 30 minutes with 0.1 nM of ¹²⁵I-labelled PACAP27 in incubation buffer. The antibody: ¹²⁵I-labelled PACAP27 mixture was then added to 0.5 μg aliquots of cell membranes derived from Chem-1 cells expressing human recombinant PAC1-R long isoform in incubation buffer. The mixture was then incubated for 1 hour at 25° C. Following incubation, the samples were filtered and washed. Afterward, the filters were counted to quantitate ¹²⁵I-labelled PACAP27. As an experimental control, non-specific binding to the cell membranes was estimated using 0.1 μM of […] PACAP27.

Binder | IC50, 1 nM PACAP38-induced human VPAC2-R mediated cAMP increase (human PACAP38 [1]) [µM] | IC50, 5 nM PACAP38-induced human VPAC1-R mediated cAMP increase (human PACAP38 [2]) [µM] | IC50 (human PACAP38 [3]) [µM] | IC50, 0.1 nM PACAP27-induced PAC1-R mediated cAMP increase (human PACAP27 [4]) [nM] | IC50, 0.1 nM PACAP38-induced PAC1-R mediated cAMP increase (human PACAP38 [5]) [µM] | Kd (human PACAP27 [6]) [µM] | koff (human PACAP27 [6]) [s⁻¹] | kon (human PACAP27 [6]) [M⁻¹ s⁻¹] | Kd (human VIP) [µM] | koff (human VIP) [s⁻¹] | Kd (human PACAP38 [7]) [nM] | koff (human PACAP38 [7]) [s⁻¹] | kon (human PACAP38 [7]) [M⁻¹ s⁻¹] | kon (human VIP) [M⁻¹ s⁻¹] | IC50 (human PACAP27 [8]) [µM]
anti-PACAP antibody Ab5.H (antibody, human IgG1, kappa, N297A, V domains shown, humanized form of Ab5, full length) VH: EVQLVESGGGLVQPGGSLRLSCAASGFSLSSYAMIWVRQAPGKGLEWVGIIYDNGDTYYASSAKGRFTISRDNSKNTVYLQMNSLRAEDTAVYFCAREPGSTTQNDLWGQGTLVTVSS VL: DVQMTQSPSTLSASVGDRVTITCQASENIYNSLLWYQQKPGKAPKLLIYRASTLASGVPSRFSGSGSGTEFTLTISSLQPDDFATYYCQNYYNIWTNGAAFGGGTKVEIKR | 0.00747 | 0.00277 | 0.0349 | 0.217 | 0.000378 | 0.00048 | 0.00013 | 270000 | 100000 | 0.1 | 0.031 | 1.7e-05 | 550000 |  | 
anti-PACAP antibody Ab9.H (antibody, human IgG1, kappa, N297A, V domains shown, humanized form of Ab9, full length) VH: EVQLVESGGGLVQPGGSLRLSCAASGFTVSRDYWICWVRQAPGKGLEWIGCISAGGGSTDYANWVNGRFTISRDISKNTGYLQMNSLRAEDTAVYYCAGNLEIWGQGTLVTVSS VL: DIQMTQSPSTLSASVGDRVTITCQSSPSIYSGAFLSWYQQKPGKAPKFLIYEASKLASGVPSRFSGSGSGTEFTLTISSLQPDDFATYYCLGFYDCSSVDCHAFGGGTKVEIKR | 0.00265 | 0.00246 | 0.0225 | 0.271 | 0.000278 | 0.00012 | 7.7e-05 | 620000 | 1.5 | 0.14 | 0.061 | 6.1e-05 | 1e+06 | 93000 | 
anti-PACAP antibody Ab12.H (antibody, human IgG1, kappa, N297A, V domains shown, humanized form of Ab12, full length) VH: EVQLVESGGGLVQPGGSLRLSCAASGFSLSSYAMGWVRQAPGKGLEWIGDISTYGTTDYASWVYGRFTISRDNSKNTVYLQMNSLRAEDTAVYFCARDYWLSLWGQGTLVTVSS VL: AAQLTQSPSTLSASVGDRVTITCQSSQSVYDNNALAWYQQKPGKAPKLLIYAASTLASGVPSRFSGSGSGTEFTLTISSLQPDDFATYYCLGGYYDPADNAFGGGTKVEIKR | 0.000653 | 0.00128 | 0.0681 | 0.0863 | 0.000114 | 0.0003 | 7.9e-05 | 260000 | 0.051 | 0.014 | ≤ 0.026 | ≤ 1e-05 | 380000 | 280000 | 0.00016
